This note sets out measurements from patent US20140371152A1 (DOSHISHA, published 2014).

The target of the assay is T1, Amyloid β 1-9 polypeptide corresponding to the N-terminal region of βCTF.
T1 construct: Screening target and KD partner
Briefly: dissociation constant against the Amyloid β 1-9 peptide; method not stated.

B1: #4 polypeptide (peptide)
peptide: Ac-MHLVICDCYCTTDICYCYSCTPN-NH2
modifications: cysteine pairing not given here
notes: Synthetic peptide found by screening against Amyloid β 1-9; used dissolved in DMSO; also called peptide name #4
For orientation: Kd means the equilibrium constant for the complex coming apart. High values mean weaker binding, low ones tighter binding. Regarding B1, the affinity, expressed as Kd, was 2620 nM.
